According to paper PMC11773481:

Target: purified recombinant DPP9-FLAG, Q86TI2
Experiment: SEC + native gel or EMSA; protein expressed alone in Expi293F, purified by anti-FLAG IP, Superdex 200 Increase 10/300 GL; BN-PAGE immunoblot
Conditions: remark: other sources report otherwise

- stoichiometry N: 2
B1: purified recombinant DPP9-FLAG, Q86TI2 1-863 (enzyme)
chain: MATTGTPTADRGDAAATDDPAARFQVQKHSWDGLRSIIHGSRKYSGLIVNKAPHDFQFVQKTDESGPHSHRLYYLGMPYGSRENSLLYSEIPKKVRKEALLLLSWKQMLDHFQATPHHGVYSREEELLRERKRLGVFGITSYDFHSESGLFLFQASNSLFHCRDGGKNGFMVSPMKPLEIKTQCSGPRMDPKICPADPAFFSFINNSDLWVANIETGEERRLTFCHQGLSNVLDDPKSAGVATFVIQEEFDRFTGYWWCPTASWEGSEGLKTLRILYEEVDESEVEVIHVPSPALEERKTDSYRYPRTGSKNPKIALKLAEFQTDSQGKIVSTQEKELVQPFSSLFPKVEYIARAGWTRDGKYAWAMFLDRPQQWLQLVLLPPALFIPSTENEEQRLASARAVPRNVQPYVVYEEVTNVWINVHDIFYPFPQSEGEDELCFLRANECKTGFCHLYKVTAVLKSQGYDWSEPFSPGEDEFKCPIKEEIALTSGEWEVLARHGSKIWVNEETKLVYFQGTKDTPLEHHLYVVSYEAAGEIVRLTTPGFSHSCSMSQNFDMFVSHYSSVSTPPCVHVYKLSGPDDDPLHKQPRFWASMMEAASCPPDYVPPEIFHFHTRSDVRLYGMIYKPHALQPGKKHPTVLFVYGGPQVQLVNNSFKGIKYLRLNTLASLGYAVVVIDGRGSCQRGLRFEGALKNQMGQVEIEDQVEGLQFVAEKYGFIDLSRVAIHGWSYGGFLSLMGLIHKPQVFKVAIAGAPVTVWMAYDTGYTERYMDVPENNQHGYEAGSVALHVEKLPNEPNRLLILHGFLDENVHFFHTNFLVSQLIRAGKPYQLQIYPNERHSIRCPESGEHYEVTLLHFLQEYL
